8 variants from IntAct's records for PubMed 34606829 can be followed below.

The chains are these.
B1: ALK tyrosine kinase receptor (Homo sapiens), Q9UM73 (parent)
chain: MGAIGLLWLLPLLLSTAAVGSGMGTGQRAGSPAAGPPLQPREPLSYSRLQRKSLAVDFVVPSLFRVYARDLLLPPSSSELKAGRPEARGSLALDCAPLLRLLGPAPGVSWTAGSPAPAEARTLSRVLKGGSVRKLRRAKQLVLELGEEAILEGCVGPPGEAAVGLLQFNLSELFSWWIRQGEGRLRIRLMPEKKASEVGREGRLSAAIRASQPRLLFQIFGTGHSSLESPTNMPSPSPDYFTWNLTWIMKDSFPFLSHRSRYGLECSFDFPCELEYSPPLHDLRNQSWSWRRIPSEEASQMDLLDGPGAERSKEMPRGSFLLLNTSADSKHTILSPWMRSSSEHCTLAVSVHRHLQPSGRYIAQLLPHNEAAREILLMPTPGKHGWTVLQGRIGRPDNPFRVALEYISSGNRSLSAVDFFALKNCSEGTSPGSKMALQSSFTCWNGTVLQLGQACDFHQDCAQGEDESQMCRKLPVGFYCNFEDGFCGWTQGTLSPHTPQWQVRTLKDARFQDHQDHALLLSTTDVPASESATVTSATFPAPIKSSPCELRMSWLIRGVLRGNVSLVLVENKTGKEQGRMVWHVAAYEGLSLWQWMVLPLLDVSDRFWLQMVAWWGQGSRAIVAFDNISISLDCYLTISGEDKILQNTAPKSRNLFERNPNKELKPGENSPRQTPIFDPTVHWLFTTCGASGPHGPTQAQCNNAYQNSNLSVEVGSEGPLKGIQIWKVPATDTYSISGYGAAGGKGGKNTMMRSHGVSVLGIFNLEKDDMLYILVGQQGEDACPSTNQLIQKVCIGENNVIEEEIRVNRSVHEWAGGGGGGGGATYVFKMKDGVPVPLIIAAGGGGRAYGAKTDTFHPERLENNSSVLGLNGNSGAAGGGGGWNDNTSLLWAGKSLQEGATGGHSCPQAMKKWGWETRGGFGGGGGGCSSGGGGGGYIGGNAASNNDPEMDGEDGVSFISPLGILYTPALKVMEGHGEVNIKHYLNCSHCEVDECHMDPESHKVICFCDHGTVLAEDGVSCIVSPTPEPHLPLSLILSVVTSALVAALVLAFSGIMIVYRRKHQELQAMQMELQSPEYKLSKLRTSTIMTDYNPNYCFAGKTSSISDLKEVPRKNITLIRGLGHGAFGEVYEGQVSGMPNDPSPLQVAVKTLPEVCSEQDELDFLMEALIISKFNHQNIVRCIGVSLQSLPRFILLELMAGGDLKSFLRETRPRPSQPSSLAMLDLLHVARDIACGCQYLEENHFIHRDIAARNCLLTCPGPGRVAKIGDFGMARDIYRASYYRKGGCAMLPVKWMPPEAFMEGIFTSKTDTWSFGVLLWEIFSLGYMPYPSKSNQEVLEFVTSGGRMDPPKNCPGPVYRIMTQCWQHQPEDRPNFAIILERIEYCTQDPDVINTALPIEYGPLVEEEEKVPVRPKDPEGVPPLLVSQQAKREEERSPAAPPPLPTTSSGKAAKKPTAAEISVRVPRGPAVEGGHVNMAFSQSNPPSELHKVHGSRNKPTSLWNPTYGSWFTEKPTKKNNPIAKKEPHDRGNLGLEGSCTVPPNVATGRLPGASLLLEPSSLTANMKEVPLFRLRHFPCGNVNYGYQQQGLPLEAATAPGAGHYEDTILKSKNSMNQPGP
B2: ALK tyrosine kinase receptor (Homo sapiens), Q9UM73 (parent)
chain: B1 chain
partner: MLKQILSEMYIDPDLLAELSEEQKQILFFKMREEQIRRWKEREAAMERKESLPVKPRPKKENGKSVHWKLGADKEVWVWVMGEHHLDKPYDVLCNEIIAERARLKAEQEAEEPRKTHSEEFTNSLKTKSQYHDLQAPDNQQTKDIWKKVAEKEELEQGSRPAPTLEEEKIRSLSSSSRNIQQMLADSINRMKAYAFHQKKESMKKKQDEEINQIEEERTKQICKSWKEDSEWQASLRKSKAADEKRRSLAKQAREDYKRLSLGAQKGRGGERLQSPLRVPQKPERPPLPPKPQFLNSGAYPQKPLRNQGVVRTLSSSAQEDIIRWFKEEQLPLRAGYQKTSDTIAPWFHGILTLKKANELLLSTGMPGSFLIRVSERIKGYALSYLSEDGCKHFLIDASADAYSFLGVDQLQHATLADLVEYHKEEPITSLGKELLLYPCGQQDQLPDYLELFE
B3: ALK tyrosine kinase receptor (Homo sapiens), Q9UM73 (parent)
chain: B1 chain
partner: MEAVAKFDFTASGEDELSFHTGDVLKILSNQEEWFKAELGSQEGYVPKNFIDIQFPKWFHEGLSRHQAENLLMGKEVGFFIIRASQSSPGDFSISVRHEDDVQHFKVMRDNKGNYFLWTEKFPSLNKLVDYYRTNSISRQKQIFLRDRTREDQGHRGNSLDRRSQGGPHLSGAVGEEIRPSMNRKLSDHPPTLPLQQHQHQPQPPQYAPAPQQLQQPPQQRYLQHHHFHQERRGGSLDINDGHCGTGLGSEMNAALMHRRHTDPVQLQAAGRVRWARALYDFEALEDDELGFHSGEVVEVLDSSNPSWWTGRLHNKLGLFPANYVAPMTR

In the first assay the parent is B1. As to conditions: with abl1_human ABL1, P00519.
Chain of abl1_human ABL1, P00519 (P00519 whole entry): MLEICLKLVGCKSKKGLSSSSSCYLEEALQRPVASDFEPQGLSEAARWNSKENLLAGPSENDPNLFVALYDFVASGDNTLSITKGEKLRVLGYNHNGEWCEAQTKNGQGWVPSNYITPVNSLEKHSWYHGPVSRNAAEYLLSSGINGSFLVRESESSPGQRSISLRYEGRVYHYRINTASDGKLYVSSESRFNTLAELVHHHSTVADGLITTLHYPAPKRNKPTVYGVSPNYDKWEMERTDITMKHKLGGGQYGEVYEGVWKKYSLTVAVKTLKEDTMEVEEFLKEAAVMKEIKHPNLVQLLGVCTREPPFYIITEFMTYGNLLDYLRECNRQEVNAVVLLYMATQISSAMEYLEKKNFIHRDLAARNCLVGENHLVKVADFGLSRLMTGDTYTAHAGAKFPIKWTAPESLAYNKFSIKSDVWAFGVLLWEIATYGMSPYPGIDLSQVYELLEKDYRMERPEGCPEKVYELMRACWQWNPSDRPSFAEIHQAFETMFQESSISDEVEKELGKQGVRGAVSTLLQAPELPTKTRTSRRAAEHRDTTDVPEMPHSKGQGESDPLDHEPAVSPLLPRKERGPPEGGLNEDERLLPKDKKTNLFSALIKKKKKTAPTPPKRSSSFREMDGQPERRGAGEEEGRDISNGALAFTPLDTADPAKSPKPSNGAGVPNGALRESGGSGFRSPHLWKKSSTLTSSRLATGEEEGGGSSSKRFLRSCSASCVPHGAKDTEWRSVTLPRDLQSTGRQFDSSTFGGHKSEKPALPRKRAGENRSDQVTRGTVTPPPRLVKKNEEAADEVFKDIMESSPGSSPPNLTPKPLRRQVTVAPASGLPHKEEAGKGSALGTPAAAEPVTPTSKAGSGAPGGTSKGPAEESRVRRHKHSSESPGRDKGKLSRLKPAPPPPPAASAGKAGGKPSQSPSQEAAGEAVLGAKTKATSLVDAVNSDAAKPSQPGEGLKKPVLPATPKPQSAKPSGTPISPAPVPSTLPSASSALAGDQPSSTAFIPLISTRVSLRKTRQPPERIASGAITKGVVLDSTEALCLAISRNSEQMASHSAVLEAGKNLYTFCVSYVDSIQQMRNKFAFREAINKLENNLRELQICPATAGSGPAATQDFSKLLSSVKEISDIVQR
Turning to I1250T, the “effect of a mutation on the interaction” value was “decreasing interaction strength”.

For L1196M, the “effect of a mutation on the interaction” value was “increasing interaction strength”.

Variants of B1 are the subject of another assay. As to conditions: with frk_human FRK.
Consider I1250T, for which the “effect of a mutation on the interaction” value is reported as “decreasing interaction strength”.

For L1196M, the “effect of a mutation on the interaction” value is “increasing interaction strength”.

In another assay the parent is B1. To be noted: with sh24b_human SH2D4B.
Regarding I1250T, the “effect of a mutation on the interaction” value is “decreasing interaction strength”.

Take L1196M: the “effect of a mutation on the interaction” value is listed as “increasing interaction strength”.

The variants in another assay derive from B1. As to conditions: with srms_human SRMS.
For I1250T, the “effect of a mutation on the interaction” value is “decreasing interaction strength”.

For L1196M, the “effect of a mutation on the interaction” value is “increasing interaction strength”.

Variants of B1 are the subject of the next assay. To be noted: with sta5b_human STAT5B.
For I1250T, the “effect of a mutation on the interaction” value is listed as “decreasing interaction strength”.

For L1196M, the “effect of a mutation on the interaction” value is reported as “increasing interaction strength”.

Another assay covers variants of B1. To be noted: with syk_human KARS1, Q15046.
Chain of syk_human KARS1, Q15046 (Q15046 whole entry, looked up): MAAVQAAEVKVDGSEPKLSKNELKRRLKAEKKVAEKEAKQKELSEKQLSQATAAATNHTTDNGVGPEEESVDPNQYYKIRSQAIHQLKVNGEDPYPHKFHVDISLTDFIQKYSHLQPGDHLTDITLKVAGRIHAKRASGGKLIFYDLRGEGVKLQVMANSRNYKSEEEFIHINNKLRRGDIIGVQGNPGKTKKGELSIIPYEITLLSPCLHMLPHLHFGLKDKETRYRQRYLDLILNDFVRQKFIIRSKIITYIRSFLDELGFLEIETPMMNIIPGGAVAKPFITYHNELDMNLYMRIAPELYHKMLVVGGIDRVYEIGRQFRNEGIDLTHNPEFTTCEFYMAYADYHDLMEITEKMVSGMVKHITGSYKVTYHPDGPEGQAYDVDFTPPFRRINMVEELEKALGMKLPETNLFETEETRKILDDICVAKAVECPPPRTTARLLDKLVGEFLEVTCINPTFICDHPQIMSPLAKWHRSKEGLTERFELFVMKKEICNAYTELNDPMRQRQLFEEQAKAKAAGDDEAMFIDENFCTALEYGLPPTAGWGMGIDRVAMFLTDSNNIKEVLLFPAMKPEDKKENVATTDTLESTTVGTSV
In the case of I1250T, the “effect of a mutation on the interaction” value was “decreasing interaction strength”.

Turning to L1196M, the “effect of a mutation on the interaction” value is “increasing interaction strength”.

In another assay the parent is B1. As to conditions: with crk_human CRK.
With I1250T, the “effect of a mutation on the interaction” value is listed as “decreasing interaction strength”.

On to L1196M, for which the “effect of a mutation on the interaction” value was “increasing interaction strength”.

In a further assay the parent is B1. To be noted: with fgr_human FGR.
I1250T: the “effect of a mutation on the interaction” value is “decreasing interaction strength”.

As for L1196M, the “effect of a mutation on the interaction” value is “increasing interaction strength”.

In the next assay the parent is B1. To be noted: with grb14_human GRB14, Q14449.
Chain of grb14_human GRB14, Q14449 (Q14449 whole entry): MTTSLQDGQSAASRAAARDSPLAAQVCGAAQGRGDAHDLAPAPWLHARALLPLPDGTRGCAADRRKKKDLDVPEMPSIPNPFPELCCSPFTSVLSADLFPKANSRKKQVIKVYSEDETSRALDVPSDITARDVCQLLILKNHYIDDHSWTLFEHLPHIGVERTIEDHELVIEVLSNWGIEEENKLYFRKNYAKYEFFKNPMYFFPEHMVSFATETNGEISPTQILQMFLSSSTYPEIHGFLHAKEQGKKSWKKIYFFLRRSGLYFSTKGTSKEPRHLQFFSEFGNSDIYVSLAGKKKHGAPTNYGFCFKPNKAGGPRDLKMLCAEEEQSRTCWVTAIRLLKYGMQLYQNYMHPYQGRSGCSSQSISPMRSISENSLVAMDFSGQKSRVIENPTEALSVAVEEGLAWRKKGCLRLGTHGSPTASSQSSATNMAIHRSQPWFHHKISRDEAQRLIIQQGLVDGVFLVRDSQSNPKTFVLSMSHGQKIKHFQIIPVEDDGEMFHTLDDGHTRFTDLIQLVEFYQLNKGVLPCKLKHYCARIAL
I1250T: the “effect of a mutation on the interaction” value is reported as “decreasing interaction strength”.

Take L1196M: the “effect of a mutation on the interaction” value was “increasing interaction strength”.

Another assay covers variants of B1. To be noted: with hck_human HCK.
Take I1250T: the “effect of a mutation on the interaction” value is on record as “decreasing interaction strength”.

As to L1196M, the “effect of a mutation on the interaction” value is on record as “increasing interaction strength”.

Variants of B1 are the subject of another assay. As to conditions: with lyn_human LYN.
As to I1250T, the “effect of a mutation on the interaction” value is “decreasing interaction strength”.

On to L1196M, for which the “effect of a mutation on the interaction” value is listed as “increasing interaction strength”.

Another assay covers variants of B1. To be noted: with nck2_human NCK2, O43639.
Chain of nck2_human NCK2, O43639 (O43639 whole entry): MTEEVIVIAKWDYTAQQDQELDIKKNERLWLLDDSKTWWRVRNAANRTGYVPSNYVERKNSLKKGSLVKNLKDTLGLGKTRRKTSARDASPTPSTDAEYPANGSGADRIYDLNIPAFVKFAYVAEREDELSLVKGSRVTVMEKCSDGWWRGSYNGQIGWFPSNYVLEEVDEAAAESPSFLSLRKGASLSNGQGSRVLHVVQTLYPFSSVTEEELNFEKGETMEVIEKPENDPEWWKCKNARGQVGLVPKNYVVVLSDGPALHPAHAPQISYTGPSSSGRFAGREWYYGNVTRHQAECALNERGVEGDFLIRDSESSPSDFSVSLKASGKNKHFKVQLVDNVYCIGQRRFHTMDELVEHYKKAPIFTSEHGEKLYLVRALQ
In the case of I1250T, the “effect of a mutation on the interaction” value was “decreasing interaction strength”.

Regarding L1196M, the “effect of a mutation on the interaction” value is “increasing interaction strength”.

The next assay covers variants of B1. To be noted: with sh2b1_human SH2B1, Q9NRF2.
Take I1250T: the “effect of a mutation on the interaction” value was “decreasing interaction strength”.

L1196M: the “effect of a mutation on the interaction” value is recorded as “increasing interaction strength”.

The variants in the next assay derive from B1. As to conditions: with shb_human SHB.
I1250T: the “effect of a mutation on the interaction” value is reported as “decreasing interaction strength”.

L1196M: the “effect of a mutation on the interaction” value is on record as “increasing interaction strength”.

Variants of B1 are the subject of a further assay. As to conditions: with socs3_human SOCS3, O14543.
Chain of socs3_human SOCS3, O14543 (O14543 whole entry): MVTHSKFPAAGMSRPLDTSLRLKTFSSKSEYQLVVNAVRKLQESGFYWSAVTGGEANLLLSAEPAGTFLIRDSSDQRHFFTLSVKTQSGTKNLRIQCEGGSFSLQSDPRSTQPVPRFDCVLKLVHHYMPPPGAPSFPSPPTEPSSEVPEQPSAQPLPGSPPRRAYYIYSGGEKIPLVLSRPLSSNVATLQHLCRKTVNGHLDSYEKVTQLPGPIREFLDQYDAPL
As to I1250T, the “effect of a mutation on the interaction” value is “decreasing interaction strength”.

Regarding L1196M, the “effect of a mutation on the interaction” value is “increasing interaction strength”.

The variants in a further assay derive from B1. As to conditions: with stat2_human STAT2, P52630.
Chain of stat2_human STAT2, P52630 (P52630 whole entry): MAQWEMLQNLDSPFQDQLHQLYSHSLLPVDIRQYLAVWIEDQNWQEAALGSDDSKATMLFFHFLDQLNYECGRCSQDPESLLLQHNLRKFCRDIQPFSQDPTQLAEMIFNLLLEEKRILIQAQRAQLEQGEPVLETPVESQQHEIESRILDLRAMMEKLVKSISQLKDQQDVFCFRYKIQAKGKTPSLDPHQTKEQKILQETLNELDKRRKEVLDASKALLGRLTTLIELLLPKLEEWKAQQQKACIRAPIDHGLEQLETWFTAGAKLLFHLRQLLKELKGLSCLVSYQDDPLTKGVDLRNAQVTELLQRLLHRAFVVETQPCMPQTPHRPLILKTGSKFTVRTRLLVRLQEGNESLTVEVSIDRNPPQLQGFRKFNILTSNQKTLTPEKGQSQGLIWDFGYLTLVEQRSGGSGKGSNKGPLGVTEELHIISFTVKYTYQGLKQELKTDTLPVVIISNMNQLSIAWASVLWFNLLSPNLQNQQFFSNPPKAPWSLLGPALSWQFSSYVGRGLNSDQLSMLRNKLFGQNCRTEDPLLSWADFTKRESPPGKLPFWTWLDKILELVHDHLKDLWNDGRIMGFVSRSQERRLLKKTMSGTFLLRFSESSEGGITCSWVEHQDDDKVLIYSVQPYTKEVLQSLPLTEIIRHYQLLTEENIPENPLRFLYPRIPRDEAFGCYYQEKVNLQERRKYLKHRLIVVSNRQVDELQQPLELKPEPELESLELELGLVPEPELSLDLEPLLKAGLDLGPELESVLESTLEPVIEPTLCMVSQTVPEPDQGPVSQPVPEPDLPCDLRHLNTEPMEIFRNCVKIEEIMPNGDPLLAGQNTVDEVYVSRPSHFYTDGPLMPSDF
As for I1250T, the “effect of a mutation on the interaction” value is given as “decreasing interaction strength”.

Regarding L1196M, the “effect of a mutation on the interaction” value is recorded as “increasing interaction strength”.

The variants in another assay derive from B1. To be noted: with zap70_human ZAP70, P43403.
Chain of zap70_human ZAP70, P43403 (P43403 whole entry): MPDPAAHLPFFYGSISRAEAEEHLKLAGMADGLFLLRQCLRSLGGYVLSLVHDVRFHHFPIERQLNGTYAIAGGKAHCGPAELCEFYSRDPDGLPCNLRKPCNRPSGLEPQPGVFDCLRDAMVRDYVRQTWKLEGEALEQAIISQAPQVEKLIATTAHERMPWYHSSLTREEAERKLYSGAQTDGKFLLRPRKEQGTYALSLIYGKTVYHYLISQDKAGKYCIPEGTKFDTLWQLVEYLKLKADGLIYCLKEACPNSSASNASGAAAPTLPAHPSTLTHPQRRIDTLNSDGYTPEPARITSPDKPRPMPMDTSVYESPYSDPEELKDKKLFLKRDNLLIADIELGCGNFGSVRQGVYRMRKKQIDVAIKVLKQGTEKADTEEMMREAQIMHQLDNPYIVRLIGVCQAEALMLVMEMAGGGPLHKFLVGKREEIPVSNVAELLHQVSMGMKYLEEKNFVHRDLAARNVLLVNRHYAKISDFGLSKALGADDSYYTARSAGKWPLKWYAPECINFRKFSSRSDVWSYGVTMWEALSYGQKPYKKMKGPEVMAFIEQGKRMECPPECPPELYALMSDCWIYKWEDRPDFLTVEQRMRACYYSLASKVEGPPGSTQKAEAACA
On to I1250T, for which the “effect of a mutation on the interaction” value is on record as “decreasing interaction strength”.

As for L1196M, the “effect of a mutation on the interaction” value is “increasing interaction strength”.

Variants of B1 are the subject of a further assay. To be noted: with rack1_human RACK1, P63244.
Turning to I1250T, the “effect of a mutation on the interaction” value is recorded as “decreasing interaction strength”.

Consider L1196M, for which the “effect of a mutation on the interaction” value is “increasing interaction strength”.

Variants of B2 are the subject of a further assay. As to conditions: with sh24a_human SH2D4A.
Turning to F1245C, the “effect of a mutation on the interaction” value is listed as “increasing interaction strength”.

For the variant I1250T, the “effect of a mutation on the interaction” value was “decreasing interaction strength”.

L1196M: the “effect of a mutation on the interaction” value is listed as “increasing interaction strength”.

The variants in the next assay derive from B3. To be noted: with grap2_human GRAP2, O75791.
On to I1250T, for which the “effect of a mutation on the interaction” value is given as “decreasing interaction strength”.

As to L1196M, the “effect of a mutation on the interaction” value is “increasing interaction strength”.

With F1245C, the “effect of a mutation on the interaction” value is recorded as “increasing interaction strength”.
